Measured values taken from the supplement of paper PMC7125110.
± gives the standard error. For some assays here: Variants at the floor of the assay were thinned out.

B1: glmS ribozyme (parent)
chain: AUAAAAGCGCCAGAACUACAGAAAUGUAGUUGACGAGGAGGAGGUUUAUCGAAUUUUCGGCGGAUGCCUCCAAA

Columns and labels:
Conditions in all cases: with glucosamine-6-phosphate
glucosamine-6-phosphate [1] = variants of: B1; assay: self-cleavage kobs at 40 uM GlcN6P; higher = faster cleavage; RNA array
Outline: (§1)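 Tiles bearing barcoded ribozyme variants, transcribed in situ by E. coli RNA polymerase on sequenced MiSeq chips, were imaged over ~14 h at 37 °C using a hybridised Cy3 probe. Glucosamine-6-phosphate was supplied at 40 μM to 10 mM in HEPES/KCl/Mg(OAc)2 buffer. kobs came from one- or two-exponential decay fits to normalised per-tile medians, and weighted Michaelis–Menten fits then provided kcat and KM.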

glucosamine-6-phosphate [2] = variants of: B1; assay: self-cleavage kobs at 10000 uM GlcN6P; higher = faster cleavage; RNA array
Outline: as §1

glucosamine-6-phosphate [3] = variants of: B1; assay: KM; higher = weaker cofactor use; RNA array
Outline: as §1

glucosamine-6-phosphate [4] = variants of: B1; assay: self-cleavage kobs at 2500 uM GlcN6P; higher = faster cleavage; RNA array
Outline: as §1

glucosamine-6-phosphate [5] = variants of: B1; assay: kcat; higher = faster cleavage; RNA array
Outline: as §1

glucosamine-6-phosphate [6] = variants of: B1; assay: self-cleavage kobs at 640 uM GlcN6P; higher = faster cleavage; RNA array
Outline: as §1

glucosamine-6-phosphate [7] = variants of: B1; assay: self-cleavage kobs at 160 uM GlcN6P; higher = faster cleavage; RNA array
Outline: as §1

Row | Variant | self-cleavage kobs at 40 uM GlcN6P (glucosamine-6-phosphate [1]) | self-cleavage kobs at 10000 uM GlcN6P (glucosamine-6-phosphate [2]) | KM (glucosamine-6-phosphate [3]) | self-cleavage kobs at 2500 uM GlcN6P (glucosamine-6-phosphate [4]) | kcat (glucosamine-6-phosphate [5]) | self-cleavage kobs at 640 uM GlcN6P (glucosamine-6-phosphate [6]) | self-cleavage kobs at 160 uM GlcN6P (glucosamine-6-phosphate [7])
1 | A12G C50A | < 1e-05 s⁻¹ | < 1e-05 s⁻¹ |  |  |  |  | 
2 | U65C C68G |  |  | 418 ± 130 µM |  |  |  | 
3 | G38U G43C A64U | < 1e-05 s⁻¹ |  |  | < 1e-05 s⁻¹ |  |  | 
4 | U30C A39U |  | 0.000203 ± 2.2e-05 s⁻¹ | 1730 ± 380 µM | 0.000123 ± 1.7e-05 s⁻¹ | 0.000228 ± 2.1e-05 s⁻¹ | 6.71e-05 ± 1e-05 s⁻¹ | 
5 | G44U U56C |  |  | 4890 ± 1500 µM |  |  |  | 
6 | C16U U47G | 0.000296 ± 4.7e-05 s⁻¹ | 0.00951 ± 0.0018 s⁻¹ |  | 0.00142 ± 0.00037 s⁻¹ |  | 0.00106 ± 0.00021 s⁻¹ | 0.000527 ± 0.00011 s⁻¹
7 | U30G C50A | < 1e-05 s⁻¹ |  |  |  | < 1e-05 s⁻¹ |  | 
8 | G35A U56C A64U | < 1e-05 s⁻¹ | < 1e-05 s⁻¹ |  |  |  | < 1e-05 s⁻¹ | 
9 | G37U C71U | < 1e-05 s⁻¹ |  |  |  |  | < 1e-05 s⁻¹ | 
10 | A12U G62U C70U | < 1e-05 s⁻¹ | < 1e-05 s⁻¹ |  |  |  |  | 
11 | G43A C67G C68G | 5.46e-05 ± 1.7e-05 s⁻¹ | 7.38e-05 ± 1.4e-05 s⁻¹ |  | 6.83e-05 ± 1.7e-05 s⁻¹ |  | 0.000155 ± 4.7e-05 s⁻¹ | 
12 | C8A G37A | < 1e-05 s⁻¹ | < 1e-05 s⁻¹ |  |  |  |  | 
13 | U47G G51A | < 1e-05 s⁻¹ |  |  |  |  |  | 
14 | U55G U57G | < 1e-05 s⁻¹ | 5.12e-05 ± 1.3e-05 s⁻¹ |  |  |  | 5.98e-05 ± 2.6e-05 s⁻¹ | 
15 | A12U A42U G59C | < 1e-05 s⁻¹ |  |  |  |  |  | 
16 | A33U U47A U54C | < 1e-05 s⁻¹ | 7.82e-05 ± 1.8e-05 s⁻¹ |  | 4.24e-05 ± 2e-05 s⁻¹ |  |  | 
17 | G44A U54A |  | 0.000538 ± 0.00011 s⁻¹ | 2530 ± 870 µM | 0.00051 ± 0.0002 s⁻¹ | 0.000692 ± 0.00012 s⁻¹ | 0.000132 ± 3.9e-05 s⁻¹ | 
18 | C61U A64G C70G | < 1e-05 s⁻¹ |  |  |  |  |  | 
19 | G40A G41C G43U | < 1e-05 s⁻¹ |  |  |  |  |  | 
20 | G35C A52G |  | < 1e-05 s⁻¹ |  |  | < 1e-05 s⁻¹ | < 1e-05 s⁻¹ | < 1e-05 s⁻¹
21 | C16G A36U C50G C68G | 0.000149 ± 4.4e-05 s⁻¹ | 0.000404 ± 7.1e-05 s⁻¹ |  |  |  | 0.000979 ± 0.00021 s⁻¹ | 0.000256 ± 4.1e-05 s⁻¹
22 | G32A G43C | < 1e-05 s⁻¹ |  |  | < 1e-05 s⁻¹ |  |  | < 1e-05 s⁻¹
23 | A6G U56C | < 1e-05 s⁻¹ | < 1e-05 s⁻¹ |  |  |  | < 1e-05 s⁻¹ | < 1e-05 s⁻¹
24 | G40U U45A | 8.3e-05 ± 1.1e-05 s⁻¹ | 0.00154 ± 0.00024 s⁻¹ | 1030 ± 420 µM | 0.00235 ± 0.00023 s⁻¹ | 0.0022 ± 0.00057 s⁻¹ | 0.00081 ± 0.0001 s⁻¹ | 0.000265 ± 4.2e-05 s⁻¹
